What is called Kd is the free concentration of one partner at which half of the binding sites on the other are occupied at equilibrium, for simple one-to-one binding. Read a low Kd as higher affinity. The term stoichiometry N denotes a count of units in the complex or per binding partner.

The labels stand for the following.
B1: BMAL1 TAD (residues 579–626) (domain or fragment)
chain: not shown
notes: numbers count on: isoform Q9WTL8-4; Used at natural abundance or uniformly 15N-labelled; also called 15N BMAL1 TAD; source: E. coli Rosetta (DE3), purified (Ni-NTA, TEV cleavage, Superdex 75); not shown: His6-NusA-XL (HNXL), N-terminal, cleaved
B2: [5,6] TAMRA-labeled BMAL1 minimal TAD peptide (residues 594–626), WT (peptide)
peptide: not shown
modifications: 5,6-TAMRA on the N-terminus; free carboxyl C-terminus
notes: BMAL1 minimal TAD with helix and switch regions, residues 594–626; numbers count on: isoform Q9WTL8-4; also called [5,6]; TAMRA-BMAL1 TAD probe; native TAD probe; source: synthetic peptide (Bio-Synthesis, 95% purity)
B3: BMAL1 TAD L606A/L607A (residues 579–626) (domain or fragment)
chain: not shown
notes: numbers count on: isoform Q9WTL8-4; Used at natural abundance or 15N-labelled; also called L606A/L607A TAD mutant; 15N BMAL1 TAD L606A/L607A; source: E. coli Rosetta (DE3), purified (Ni-NTA, TEV cleavage, Superdex 75); not shown: His6-NusA-XL (HNXL), N-terminal, cleaved
B4: trans-locked BMAL1 switch peptide P625A (FSDLPWAL) (peptide)
peptide: FSDLPWAL
notes: numbers count on: isoform Q9WTL8-4; All trans; also called P625A switch; trans-locked switch; source: synthetic peptide (solid phase, Fmoc chemistry; C18 HPLC)
B5: CBP KIX domain (residues 586–672) (domain or fragment)
chain: not shown
notes: CBP KIX domain, mouse, UniProt P45481, residues 586–672; tagless; Plasmid was a gift from Peter Wright; Used at natural abundance or uniformly 15N-labelled; also called WT KIX; 15N CBP KIX; source: E. coli Rosetta (DE3), purified (Ni-NTA through native histidines, size exclusion)
B6: CBP TAZ2 domain (residues 1764–1855; C1776A, C1784A, C1827A, C1828A) (domain or fragment, mouse, UniProt P45481 1764-1855, looked up)
chain: SPQESRRLSIQRAIQSLVHAAQCRNANCSLPSCQKMKRVVQHTKGCKRKTNGGCPVCKQLIALAAYHAKHCQENKCPVPFCLNIKHKLRQQQ
notes: CBP TAZ2 domain, mouse, UniProt P45481, residues 1764–1855, with four cysteine to alanine mutations that increase solubility and stability; source: E. coli (BL21), purified (amylose sepharose, S-sepharose, Superdex 75)
B7: CLOCK:BMAL1 bHLH-PAS-AB heterodimer (complex)
chain 1: VEEDDKDKAKRVSRNKSEKKRRDQFNVLIKELGSMLPGNARKMDKSTVLQKSIDFLRKHKETTAQSDASEIRQDWKPTFLSNEEFTQLMLEALDGFFLAIMTDGSIIYVSESVTSLLEHLPSDLVDQSIFNFIPEGEHSEVYKILSTHLLESDSLTPEYLKSKNQLEFCCHMLRGTIDPKEPSTYEYVRFIGNFKSLTSVSTSTHNGFEGTIQRTHRPSYEDRVCFVATVRLATPQFIKEMCTVEEPNEEFTSRHSLEWKFLFLDHRAPPIIGYLPFEVLGTSGYDYYHVDDLENLAKCHEHLMQYGKGKSCYYRFLTKGQQWIWLQTHYYITYHQWNSRPEFIVCTHTVVSYAEVRAERRRELGIEESL
chain 2: not shown
notes: CLOCK bHLH PAS-AB, mouse, UniProtKB O08785, residues 26–395; BMAL1 bHLH PAS-AB, mouse, UniProtKB Q9WTL8-4, residues 62–441; numbers count on: isoform Q9WTL8-4; Purified on Ni-NTA and cleaved with His-TEV; also called CLOCK:BMAL1 protomer; source: insect cells (Spodoptera frugiperda or Hi5), purified (Ni-NTA, TEV cleavage, heparin, Superdex 200); copies: 1 + 1
B8: BMAL1 linker-switch peptide (residues 613–626) (peptide, UniProt Q9WTL8-4 613-626, looked up)
peptide: LGGPVDFSDLPWPL
notes: BMAL1, mouse, residues 613–626 (linker and switch of the TAD); numbers count on: isoform Q9WTL8-4; source: synthetic peptide (Pierce, 95% purity)

Data set [1] addresses B6. Put plainly: NMR titration; 15N-1H HSQC of 100 μM 15N BMAL1 TAD WT or L606A/L607A with stepwise additions of CBP KIX (WT or 3mut), TAZ1 or TAZ2; 25°C; 10 mM MES pH 6.5, 50 mM NaCl, 10% D2O; KD from fits of concentration-dependent CSPs, apparent. The note with it: both partners purified.
Data set [2] concerns the target B5. Put plainly: ITC; 220–230 μM CBP KIX WT or 3mut titrated into 20–25 μM BMAL1 TAD WT or L606A/L607A; 25°C; 10 mM MES pH 6.5, 50 mM NaCl; one-site model. The conditions noted are these: both partners purified. (In ITC the heat of successive injections is recorded.)
Data set [3] has as its target B6. Put plainly: fluorescence polarisation; CBP KIX, TAZ1 or TAZ2 titrated onto [5,6] TAMRA-labeled BMAL1 minimal TAD probes (25 nM in the legend, 50 nM in the methods); 10 mM MES pH 6.5, 50 mM NaCl, 0.05% Tween-20; room temperature; one-site specific binding with Hill coefficient; apparent KDs. The conditions noted are these: both partners purified.
Data set [4] concerns the target B5. Briefly: NMR titration; 15N-1H HSQC of 100 μM 15N CBP KIX with stepwise additions of natural abundance BMAL1 TAD or truncated peptides; 25°C; 10 mM MES pH 6.5, 50 mM NaCl, 10% D2O. The note with it: both partners purified.
Data set [5] addresses B1. Put plainly: ITC; 220–230 μM CBP KIX WT or 3mut titrated into 20–25 μM BMAL1 TAD WT or L606A/L607A; 25°C; 10 mM MES pH 6.5, 50 mM NaCl; one-site model. The note with it: both partners purified.
The target in data set [6] is B2. Put plainly: fluorescence polarisation; CBP KIX, TAZ1 or TAZ2 titrated onto [5,6] TAMRA-labeled BMAL1 minimal TAD probes (25 nM in the legend, 50 nM in the methods); 10 mM MES pH 6.5, 50 mM NaCl, 0.05% Tween-20; room temperature; one-site specific binding with Hill coefficient; apparent KDs. The note with it: both partners purified. (In general: In fluorescence polarisation assays a small probe gives low polarisation when free and higher when bound to something large.)

Data set [7] deals with the molecule itself. Briefly: cryo-EM structure; two CLOCK:BMAL1 bHLH-PAS-AB protomers on a nucleosome with tandem E-boxes 6 bp apart (SHL +3.9/+5.1); GraFix glutaraldehyde cross-linked; 4.1 Å overall, 8–12 Å in the PAS region.

B1: in data set [1], the binding result is “binds”. Moreover, the dissociation constant Kd in data set [2] is approximately 2 µM. Consider B2, for which the binding result in data set [3] is listed as “binds”. On to B3, for which the binding result in data set [1] is on record as “binds”.

With B4, in data set [4], the binding result is reported as “binds”. As for B5, the “stoichiometry N” value in data set [5] lay in the range of 0.8 to 1.1.

Regarding B6, in data set [6], the “fold lower affinity than TAZ1” value was approximately 20 fold. Take B7: in data set [7], the binding result is on record as “binds”. In the case of B8, in data set [4], the binding result is “binds”.
